Results reported in US20050260697.

Key:
[1] = target: human cardiac Troponin-I3 (UniProt P19429)
[2] = target: human cardiac Troponin-T2 (UniProt P45379)

human cardiac Troponin-I3, sequence (P19429 whole entry, looked up): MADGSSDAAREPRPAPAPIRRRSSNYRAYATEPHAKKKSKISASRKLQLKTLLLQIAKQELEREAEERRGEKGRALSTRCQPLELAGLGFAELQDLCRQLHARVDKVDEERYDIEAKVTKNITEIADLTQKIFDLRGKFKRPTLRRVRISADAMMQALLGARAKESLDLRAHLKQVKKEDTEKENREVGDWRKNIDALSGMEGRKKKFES

## calpain-2
[1]
  in vitro protease digestion, breakdown products on gels: human cardiac Troponin-T2 and Troponin-13 were cleaved by calpain-2 and caspase-3 proteases, producing unique breakdown products
  stated: cleaves (breakdown bands on a gel): the Tn-I3 (24 kDa) band stays in both Calp-2 lanes (rising amount); arrows A and B mark two faint products below it at the higher-amount lane
[2]
  in vitro protease digestion, breakdown products on gels: human cardiac Troponin-T2 and Troponin-13 were cleaved by calpain-2 and caspase-3 proteases, producing unique breakdown products
  stated: cleaves (breakdown bands on a gel): in the two Calpain-2 lanes (rising amount) the Troponin-T2 band at the 30 kDa mark fades and a band b appears between the 15 and 10 kDa marks; arrowheads a, b and c mark products between 15 and 10 kDa beside the higher-amount lane; none of these is in the untreated lane
